According to the RNAGym collection of RNA variant scans (doi:10.7554/elife.80360):

B1: Twister Ribozyme (parent)
chain: AACACUGCCAAUGCCGGUCCCAAGCCCGGAUAAAAGUGGAGGGGGCGG

Variants of: B1
Assay: self-cleavage, relative activity (ratio to wild type); higher = more cleavage; co-transcriptional

**Q.** For AACACUGCCAAUGCCGGUCCCAAGCCCGGAUAAAAGUGGAGGUGGCGG, which self-cleavage is on record?
**A.** 0.537

**Q.** With AACACUGCCAAUGCCGGUCCCAAGCCCGGAUAAAAGUGGAGGUGGAGG as the variant, how does the self-cleavage read?
**A.** 0.271

**Q.** With AACACUGCCAAUGCCGGUCCCAAGCCCGGAUAAAAGUGGAGGUGGGGG as the variant, how does the self-cleavage read?
**A.** 0.409

**Q.** For AACACUGCCAAUGCCGGUCCCAAGCCCGGAUAAAAGUGGAGGUGGUGG, which self-cleavage is on record?
**A.** 0.426

**Q.** With AACACUGCCAAUGCCGGUCCCAAGCCCGGAUAAAAGUGGAGGUAGCGG as the variant, how does the self-cleavage read?
**A.** 0.722

**Q.** With AACACUGCCAAUGCCGGUCCCAAGCCCGGAUAAAAGUGGAGGUCGCGG as the variant, how does the self-cleavage read?
**A.** 0.767

**Q.** Which self-cleavage does the source give for AACACUGCCAAUGCCGGUCCCAAGCCCGGAUAAAAGUGGAGGUUGCGG here?
**A.** 0.398

**Q.** With AACACUGCCAAUGCCGGUCCCAAGCCCGGAUAAAAGUGGAGGUGACGG as the variant, how does the self-cleavage read?
**A.** 0.614

**Q.** For AACACUGCCAAUGCCGGUCCCAAGCCCGGAUAAAAGUGGAGGUGUCGG, which self-cleavage is on record?
**A.** 0.358

**Q.** For AACACUGCCAAUGCCGGUCCCAAGCCCGGAUAAAAGUGGAGGUGGCAG, which self-cleavage is on record?
**A.** 0.201

**Q.** Which self-cleavage does the source give for AACACUGCCAAUGCCGGUCCCAAGCCCGGAUAAAAGUGGAGGUGGCCG here?
**A.** 0.177

**Q.** For AACACUGCCAAUGCCGGUCCCAAGCCCGGAUAAAAGUGGAGGUGGCUG, which self-cleavage is on record?
**A.** 0.137

**Q.** Which self-cleavage does the source give for AACACUGCCAAUGCCGGUCCCAAGCCCGGAUAAAAGUGGAGGUGGCGA here?
**A.** 0.175

**Q.** For AACACUGCCAAUGCCGGUCCCAAGCCCGGAUAAAAGUGGAGGUGGCGC, which self-cleavage is on record?
**A.** 0.205

**Q.** Which self-cleavage does the source give for AACACUGCCAAUGCCGGUCCCAAGCCCGGAUAAAAGUGGAGGUGGCGU here?
**A.** 0.198

**Q.** Which self-cleavage does the source give for AACACUGCCAAUGCCGGUCCCAAGCCCGGAUAAAAGUGGAGGGAGCGG here?
**A.** 0.959

**Q.** With AACACUGCCAAUGCCGGUCCCAAGCCCGGAUAAAAGUGGAGGGAACGG as the variant, how does the self-cleavage read?
**A.** 0.906

**Q.** Which self-cleavage does the source give for AACACUGCCAAUGCCGGUCCCAAGCCCGGAUAAAAGUGGAGGGACCGG here?
**A.** 0.535

**Q.** For AACACUGCCAAUGCCGGUCCCAAGCCCGGAUAAAAGUGGAGGGAGCCG, which self-cleavage is on record?
**A.** 0.828

**Q.** Which self-cleavage does the source give for AACACUGCCAAUGCCGGUCCCAAGCCCGGAUAAAAGUGGAGGGAGCUG here?
**A.** 0.922

**Q.** For AACACUGCCAAUGCCGGUCCCAAGCCCGGAUAAAAGUGGAGGGAGCGA, which self-cleavage is on record?
**A.** 0.927

**Q.** With AACACUGCCAAUGCCGGUCCCAAGCCCGGAUAAAAGUGGAGGGCGCGG as the variant, how does the self-cleavage read?
**A.** 0.971

**Q.** For AACACUGCCAAUGCCGGUCCCAAGCCCGGAUAAAAGUGGAGGGCGAGG, which self-cleavage is on record?
**A.** 0.28

**Q.** For AACACUGCCAAUGCCGGUCCCAAGCCCGGAUAAAAGUGGAGGGCGGGG, which self-cleavage is on record?
**A.** 0.254

**Q.** For AACACUGCCAAUGCCGGUCCCAAGCCCGGAUAAAAGUGGAGGGCACGG, which self-cleavage is on record?
**A.** 0.762

**Q.** Which self-cleavage does the source give for AACACUGCCAAUGCCGGUCCCAAGCCCGGAUAAAAGUGGAGGGCGCUG here?
**A.** 0.244

**Q.** Which self-cleavage does the source give for AACACUGCCAAUGCCGGUCCCAAGCCCGGAUAAAAGUGGAGGGCGCGC here?
**A.** 0.225

**Q.** With AACACUGCCAAUGCCGGUCCCAAGCCCGGAUAAAAGUGGAGGGCGCGU as the variant, how does the self-cleavage read?
**A.** 0.225

**Q.** For AACACUGCCAAUGCCGGUCCCAAGCCCGGAUAAAAGUGGAGGGUGCGG, which self-cleavage is on record?
**A.** 0.974

**Q.** Which self-cleavage does the source give for AACACUGCCAAUGCCGGUCCCAAGCCCGGAUAAAAGUGGAGGGUGAGG here?
**A.** 0.476

**Q.** For AACACUGCCAAUGCCGGUCCCAAGCCCGGAUAAAAGUGGAGGGUGGGG, which self-cleavage is on record?
**A.** 0.728

**Q.** Which self-cleavage does the source give for AACACUGCCAAUGCCGGUCCCAAGCCCGGAUAAAAGUGGAGGGUGUGG here?
**A.** 1.02

**Q.** For AACACUGCCAAUGCCGGUCCCAAGCCCGGAUAAAAGUGGAGGGUACGG, which self-cleavage is on record?
**A.** 0.825

**Q.** For AACACUGCCAAUGCCGGUCCCAAGCCCGGAUAAAAGUGGAGGGUUCGG, which self-cleavage is on record?
**A.** 0.922

**Q.** Which self-cleavage does the source give for AACACUGCCAAUGCCGGUCCCAAGCCCGGAUAAAAGUGGAGGGUGCUG here?
**A.** 0.783

**Q.** With AACACUGCCAAUGCCGGUCCCAAGCCCGGAUAAAAGUGGAGGGUGCGC as the variant, how does the self-cleavage read?
**A.** 0.427

**Q.** For AACACUGCCAAUGCCGGUCCCAAGCCCGGAUAAAAGUGGAGGGUGCGU, which self-cleavage is on record?
**A.** 0.545

**Q.** For AACACUGCCAAUGCCGGUCCCAAGCCCGGAUAAAAGUGGAGGGGACGG, which self-cleavage is on record?
**A.** 0.939

**Q.** For AACACUGCCAAUGCCGGUCCCAAGCCCGGAUAAAAGUGGAGGGGAAGG, which self-cleavage is on record?
**A.** 0.714

**Q.** Which self-cleavage does the source give for AACACUGCCAAUGCCGGUCCCAAGCCCGGAUAAAAGUGGAGGGGAGGG here?
**A.** 0.856

**Q.** Which self-cleavage does the source give for AACACUGCCAAUGCCGGUCCCAAGCCCGGAUAAAAGUGGAGGGGAUGG here?
**A.** 0.848

**Q.** With AACACUGCCAAUGCCGGUCCCAAGCCCGGAUAAAAGUGGAGGGGACCG as the variant, how does the self-cleavage read?
**A.** 0.539

**Q.** With AACACUGCCAAUGCCGGUCCCAAGCCCGGAUAAAAGUGGAGGGGACUG as the variant, how does the self-cleavage read?
**A.** 0.701

**Q.** With AACACUGCCAAUGCCGGUCCCAAGCCCGGAUAAAAGUGGAGGGGACGA as the variant, how does the self-cleavage read?
**A.** 0.785

**Q.** With AACACUGCCAAUGCCGGUCCCAAGCCCGGAUAAAAGUGGAGGGGACGU as the variant, how does the self-cleavage read?
**A.** 0.917

**Q.** With AACACUGCCAAUGCCGGUCCCAAGCCCGGAUAAAAGUGGAGGGGCCGG as the variant, how does the self-cleavage read?
**A.** 0.645

**Q.** With AACACUGCCAAUGCCGGUCCCAAGCCCGGAUAAAAGUGGAGGGGCAGG as the variant, how does the self-cleavage read?
**A.** 0.564

**Q.** Which self-cleavage does the source give for AACACUGCCAAUGCCGGUCCCAAGCCCGGAUAAAAGUGGAGGGGCGGG here?
**A.** 1.61

**Q.** Which self-cleavage does the source give for AACACUGCCAAUGCCGGUCCCAAGCCCGGAUAAAAGUGGAGGGGCCAG here?
**A.** 0.305

**Q.** With AACACUGCCAAUGCCGGUCCCAAGCCCGGAUAAAAGUGGAGGGGUCGG as the variant, how does the self-cleavage read?
**A.** 0.902

**Q.** For AACACUGCCAAUGCCGGUCCCAAGCCCGGAUAAAAGUGGAGGGGUAGG, which self-cleavage is on record?
**A.** 0.595

**Q.** With AACACUGCCAAUGCCGGUCCCAAGCCCGGAUAAAAGUGGAGGGGUCCG as the variant, how does the self-cleavage read?
**A.** 0.435

**Q.** Which self-cleavage does the source give for AACACUGCCAAUGCCGGUCCCAAGCCCGGAUAAAAGUGGAGGGGUCUG here?
**A.** 0.386

**Q.** With AACACUGCCAAUGCCGGUCCCAAGCCCGGAUAAAAGUGGAGGGGUCGA as the variant, how does the self-cleavage read?
**A.** 0.757
